Results on 3 proteins are retold here after doi:10.1101/2022.07.21.501072 (bioRxiv, 2022).

Substitutions are numbered along the chain they refer to. Names and notes keep the numbering of the source.

B1: IcsA passenger C375S (secreted) (domain or fragment, Shigella flexneri, UniProt Q7BCK4 53-758, looked up)
chain: TPLSGTQELHFSEDNYEKLLTPVDGLSPLGAGEDGMDAWYITSSNPSHASRTKLRINSDIMISAGHGGAGDNNDGNSCGGNGGDSITGSDLSIINQGMILGGSGGSGADHNGDGGEAVTGDNLFIINGEIISGGHGGDSYSDSDGGNGGDAVTGVNLPIINKGTISGGNGGNNYGEGDGGNGGDAITGSSLSVINKGTFAGGNGGAAYGYGYDGYGGNAITGDNLSVINNGAILGGNGGHWGDAINGSNMTIANSGYIISGKEDDGTQNVAGNAIHITGGNNSLILHEGSVITGDVQVNNSSILKIINNDYTGTTPTIEGDLSAGDCTTVSLSGNKFTVSGDVSFGENSSLNLAGISSLEASGNMSFGNNVKVEAIINNWAQKDYKLLSADKGITGFSVSNISIINPLLTTGAIDYTKSYISDQNKLIYGLSWNDTDGDSHGEFNLKENAELTVSTILADNLSHHNINSWDGKSLTKSGEGTLILAEKNTYSGFTNINAGILKMGTVEAMTRTAGVIVNKGATLNFSGMNQTVNTLLNSGTVLINNINAPFLPDPVIVTGNMTLEKNGHVILNNSSSNVGQTYVQKGNWHGKGGILSLGAVLGNDNSKTDRLEIAGHASGITYVAVTNEGGSGDKTLEGVQIISTDSSDKNAFIQKGRIVAGSYDYRLKQGTVSGLNTNKWYLTSQMDNQESKQMSNQESTQMSSR
B2: IcsA passenger C379S (secreted) (domain or fragment, Shigella flexneri, UniProt Q7BCK4 53-758, looked up)
chain: B1 chain with S323C, C327S
B3: IcsA passenger C375S/C379S double mutant (secreted) (domain or fragment, Shigella flexneri, UniProt Q7BCK4 53-758, looked up)
chain: B1 chain with C327S

This data set deals with the molecule itself. As to the kind of experiment: semi-denaturing SDS-PAGE.
With B1, the “stoichiometry N” value turned out to be 2.

B2: the “stoichiometry N” value was 2.

For the protein B3, the “stoichiometry N” value is 2.

For orientation: stoichiometry N means the number of molecules, sites or subunits per partner or assembly.
